# Source: publication PMC5715787, “Structural basis for antibody recognition of the NANP repeats in Plasmodium falciparum circumsporozoite protein” (Proceedings of the National Academy of Sciences of the …, 2017)
# T1: Ac-NPNVDPNANPNV-NH2 peptide (Plasmodium falciparum CSP repeat …)
# T1 chain: Ac-NPNVDPNANPNV-NH2
# T2: Ac-DPNANPNVDPNA-NH2 peptide (Plasmodium falciparum CSP repeat …)
# T2 chain: Ac-DPNANPNVDPNA-NH2
# B1: Fab311 (Fab, V domains shown)
# VH: QVQLVESGGGVVPPGRSLRLSCATSGFTFSNYGMHWVRQAPGKGLEWVAIIWYDGSRNFYAASVEGRFTISRDNSKNTLYLQMNSLRVEDTAVYYCARAAYYDTSGYGDYWGQGTLVTVSS
# VL: QSVLTQPPSVSGAPGQTVTISCTGGSSNIGAGYDVHWYQQLPGTAPKLLIYGNINRPSGVPDRFSGSKSGTSASLAITGLQAEDEADYYCQSYDRRLSGSWVFGGGTKLTVL
# B2: Fab317 (Fab, V domains shown)
# VH: QMQLVESGGGVVQPGRSLRLSCTASGFTFSTYAMHWVRQSPGQGLQWVAVISYHSTNKYYEDSVRGRFTISRDNSKNTLYLQMNSLRAEDTAVYYCARDGYSSSFFDFWGQGTLVTVSS
# VL: DIQMTQSPSTLSASVGDRVAITCRASQSISRWLAWYQQQPGKAPKLLMSGASVLESGVPSRFSGSGSGTEFTLTISSLQPDDFATYYCQHYNSYFVTFGQGTKVEIK
# Columns and labels:
# Test in all cases: ITC; MicroCal Auto-iTC200; triplicate (or duplicate) experiments; details in SI
# Conditions in all cases: both partners purified
# [1] = target: T3, (NPNA)3 peptide, Ac-[residues removed]-NH2 (Plasmodium falciparum CSP repeat …)
# T3 construct: also called 12-mer
# (NPNA)2 peptide = (NPNA)2 peptide (Plasmodium falciparum CSP repeat …)
# [2] = target: T1, Ac-NPNVDPNANPNV-NH2 peptide
# [3] = target: T2, Ac-DPNANPNVDPNA-NH2 peptide
Binder,Kd [1],dH [1],stoichiometry N [1],Kd ((NPNA)2 peptide),dH ((NPNA)2 peptide),stoichiometry N ((NPNA)2 peptide),Kd [2],dH [2],stoichiometry N [2],Kd [3],dH [3],stoichiometry N [3]
B1,305 nM,-29.8 kcal/mol,0.74,296 nM,-16.4 kcal/mol,1.5,1790 nM,-18.7 kcal/mol,1.24,1370 nM,-20.2 kcal/mol,1.2
B2,78 nM,-15.7 kcal/mol,1.27,173 nM,-12.1 kcal/mol,1.41,–,–,–,448 nM,-9.39 kcal/mol,1.64
